# Values quoted from earlier work in publication PMC6389997.
# Columns and labels:
# Conditions in all cases: cited from earlier work
# [1] = molecular target: Im7 (folded) (Escherichia coli) (UniProt Q03708)
# [2] = molecular target: Im7 (unfolded-like) (Escherichia coli) (UniProt Q03708)
# [3] = molecular target: Im7 (intermediate-like) (Escherichia coli) (UniProt Q03708)
# [4] = molecular target: sigma32 (Escherichia coli) (UniProt P0AGB3)
# Chain of sigma32 (Escherichia coli) (P0AGB3 whole entry): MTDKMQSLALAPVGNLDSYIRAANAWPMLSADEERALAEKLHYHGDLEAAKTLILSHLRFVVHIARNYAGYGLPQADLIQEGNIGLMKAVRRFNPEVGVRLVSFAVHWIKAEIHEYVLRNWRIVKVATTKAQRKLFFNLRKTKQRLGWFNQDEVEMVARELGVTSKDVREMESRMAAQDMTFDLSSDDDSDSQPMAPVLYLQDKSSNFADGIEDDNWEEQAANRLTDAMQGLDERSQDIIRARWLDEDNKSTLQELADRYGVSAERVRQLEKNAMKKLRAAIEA
# Chain of Spy (P77754 24-161): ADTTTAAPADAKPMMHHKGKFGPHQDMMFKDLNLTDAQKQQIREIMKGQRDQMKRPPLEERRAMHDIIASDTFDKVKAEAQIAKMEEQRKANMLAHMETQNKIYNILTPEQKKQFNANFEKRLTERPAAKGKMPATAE
# Chain of DnaK (P0A6Y8 2-638): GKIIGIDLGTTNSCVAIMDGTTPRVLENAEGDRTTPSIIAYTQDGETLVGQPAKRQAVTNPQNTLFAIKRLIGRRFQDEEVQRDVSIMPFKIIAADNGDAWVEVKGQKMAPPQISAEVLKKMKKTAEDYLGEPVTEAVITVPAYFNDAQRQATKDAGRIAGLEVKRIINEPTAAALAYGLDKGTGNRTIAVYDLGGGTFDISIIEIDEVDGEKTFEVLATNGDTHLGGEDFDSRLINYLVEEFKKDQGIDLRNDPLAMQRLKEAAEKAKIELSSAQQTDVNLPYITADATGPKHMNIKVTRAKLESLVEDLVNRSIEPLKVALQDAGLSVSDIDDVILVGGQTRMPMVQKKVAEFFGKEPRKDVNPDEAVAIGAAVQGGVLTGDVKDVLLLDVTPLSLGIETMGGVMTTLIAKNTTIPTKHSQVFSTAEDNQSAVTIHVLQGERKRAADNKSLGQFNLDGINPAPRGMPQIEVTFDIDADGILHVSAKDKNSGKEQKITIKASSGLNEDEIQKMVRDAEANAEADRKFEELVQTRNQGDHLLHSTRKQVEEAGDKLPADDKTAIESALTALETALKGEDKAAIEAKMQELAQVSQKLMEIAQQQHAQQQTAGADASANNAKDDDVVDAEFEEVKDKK
# Chain of Im7 (folded) (Escherichia coli) (Q03708 whole entry): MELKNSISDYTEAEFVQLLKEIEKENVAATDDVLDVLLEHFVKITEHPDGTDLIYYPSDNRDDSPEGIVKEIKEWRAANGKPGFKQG
# Chain of Im7 (intermediate-like) (Escherichia coli) (Q03708 whole entry): as above
# Chain of Im7 (unfolded-like) (Escherichia coli) (Q03708 whole entry): as above
substance,measurement,setting,value
Spy (from UniProt P77754),Kd,[1],20.5 µM
same,Kd,[2],10.4 µM
same,Kd,[3],3.5 µM
DnaK (from UniProt P0A6Y8),Kd,[4],1.4 µM
